The source of these data is patent US20220023395A1.

The target of assay [1] is IL-2 receptor (CD25) on HUT-102 and MT-2 cells (human) (UniProt P01589). As to the kind of experiment: cell-based or functional assay.
Assay [2] addresses T1, CD124 (IL4-receptor) on 4T1 triple-negative breast cancer cells (mouse) (UniProt P16382).
T1 sequence: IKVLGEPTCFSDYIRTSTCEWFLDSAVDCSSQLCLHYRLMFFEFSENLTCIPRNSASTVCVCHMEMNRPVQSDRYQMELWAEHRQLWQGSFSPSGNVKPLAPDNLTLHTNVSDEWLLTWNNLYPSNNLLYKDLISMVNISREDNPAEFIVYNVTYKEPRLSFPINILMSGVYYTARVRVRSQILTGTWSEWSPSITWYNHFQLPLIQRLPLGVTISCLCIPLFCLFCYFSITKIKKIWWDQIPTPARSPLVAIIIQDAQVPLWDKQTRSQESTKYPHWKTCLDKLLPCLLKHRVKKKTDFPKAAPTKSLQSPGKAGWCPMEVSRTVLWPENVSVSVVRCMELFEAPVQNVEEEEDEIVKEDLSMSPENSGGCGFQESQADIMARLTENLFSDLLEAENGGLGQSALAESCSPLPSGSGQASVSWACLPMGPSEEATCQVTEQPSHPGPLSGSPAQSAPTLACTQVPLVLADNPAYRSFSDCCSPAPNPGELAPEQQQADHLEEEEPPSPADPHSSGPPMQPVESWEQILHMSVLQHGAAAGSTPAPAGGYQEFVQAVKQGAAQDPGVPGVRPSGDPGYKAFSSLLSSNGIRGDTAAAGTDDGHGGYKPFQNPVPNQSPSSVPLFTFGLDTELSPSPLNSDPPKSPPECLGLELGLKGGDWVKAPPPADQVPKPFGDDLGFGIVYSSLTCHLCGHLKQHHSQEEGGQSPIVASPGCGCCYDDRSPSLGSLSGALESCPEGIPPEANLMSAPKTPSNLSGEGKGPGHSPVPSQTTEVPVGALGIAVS
As to the kind of experiment: cell-based or functional assay.

Sequence of UniProt P01589 (P01589 22-272): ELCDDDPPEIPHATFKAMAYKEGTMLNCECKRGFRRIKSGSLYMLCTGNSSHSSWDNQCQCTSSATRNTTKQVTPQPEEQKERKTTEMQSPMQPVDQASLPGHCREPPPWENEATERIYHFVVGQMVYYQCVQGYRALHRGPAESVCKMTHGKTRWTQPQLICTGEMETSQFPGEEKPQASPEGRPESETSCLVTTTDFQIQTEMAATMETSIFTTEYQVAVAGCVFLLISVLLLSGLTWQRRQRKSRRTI

In turn, “C. diphtheriae-derived s-Ontak-His6 (SEQ ID NO: 58)” yielded an MT-2 cell IC50 (earlier disclosed data) in assay [1] of 0.12 pM.

Turning to “E. coli-derived classic Ontak (denileukin diftitox, SEQ ID NO: 10)”, the IC50 against HUT-102 T cell lymphoma cells (in vitro cell killing) in assay [1] is 1.8 pM.

On to s-DAB1-389-mIL4-His6 (SEQ ID NO: 134), for which, in assay [2], the IC50 for killing 4T1 cells (Trypan blue viability) was 10 pM and the IC50 of 4T1 cell migration inhibition (clonogenic assay, Giemsa staining) came to 800 pM.
